Source: PMC3495302, “The putative K^+ channel subunit AtKCO3 forms stable dimers in Arabidopsis” (Frontiers in Plant Science, 2012)

B1: AtKCO3::GFP (natural protein, Arabidopsis thaliana, UniProt Q9XFR0 1-260, looked up)
chain: MPMTPSEFKNRLLFGSLPRSSSDPTDLQFTEPNVPPSLFSLPEHNDDTATDMAPDQETEQSVSKSIARQALALLVVYLSLGVLIYWLTLDSDNAYQTHPVAVALYFFVVTFCGFLIVHFVVKIGWLDSFCFSVMMVTTVGFGDRAFNTWLGTFLAAVWLLVSTLAVARAFLFLADARADKRNRERAKKVLGESISISQFFAADIDNDGRLSLAEFAIYKLKQMEKITQEDFIQICNQFDKLDRTQSGRITLVDLTTATSV
notes: AtKCO3 of Arabidopsis thaliana, locus AT5G46360; fusion of about 60 kDa; Made with pBI-35S-10H-GFP-JFH1 (Hong et al., 1999); the vector's name may mean further tag residues (surmise); source: transgenic Arabidopsis (CaMV 35S promoter, p35S-KCO3::GFP), in leaf homogenate; not shown: GFP, C-terminal, kept
B2: AtKCO3 (natural protein, Arabidopsis thaliana, UniProt Q9XFR0 1-260, looked up)
chain: B1 chain
notes: AtKCO3, putative one-pore K+ channel subunit of Arabidopsis thaliana, locus AT5G46360; cDNA from seedlings of ecotype C24; calculated mass 29 kDa; The AtKCO3 cDNA without tag was put into pBinAR-Kan; also called wild-type protein; source: transgenic Arabidopsis (CaMV 35S promoter, p35S-KCO3), in leaf homogenate
B3: γTIP (natural protein, UniProt P25818 1-251, looked up)
chain: MPIRNIAIGRPDEATRPDALKAALAEFISTLIFVVAGSGSGMAFNKLTENGATTPSGLVAAAVAHAFGLFVAVSVGANISGGHVNPAVTFGAFIGGNITLLRGILYWIAQLLGSVVACLILKFATGGLAVPAFGLSAGVGVLNAFVFEIVMTFGLVYTVYATAIDPKNGSLGTIAPIAIGFIVGANILAGGAFSGASMNPAVAFGPAVVSWTWTNHWVYWAGPLVGGGIAGLIYEVFFINTTHEQLPTTDY
notes: gamma-TIP, tonoplast aquaporin of Arabidopsis; detected with an antibody against its C-terminal nine amino acids; also called tonoplast aquaporin γTIP; source: endogenous, Arabidopsis leaf homogenate or microsomes

Molecular target: the molecule itself
Assay: velocity sucrose gradient centrifugation; leaf homogenate in 200 mM NaCl, 0.2% Triton X-100, 50 mM Tris-Cl pH 7.8; linear 5-25% sucrose gradient with 150 mM NaCl, 0.1% Triton X-100, 200,000 x g, 25 h, 4°C; fractions by SDS-PAGE and western blot; mass markers in a further gradient

B1 and B2 are the same in “stoichiometry N” value: 2 for the first, 2 for the second.

In the case of B3, the “stoichiometry N” value is reported as 4.
